Assay results from patent CN114641502A (SHANGHAI YINGMING BIOTECHNOLOGY CO LTD, dated 2022).

Key:
[1] = target: T1, 人TIGIT (full length, on cells) (human, UniProt Q495A1 22-244); test: flow cytometry affinity on CHOK1 cells over-expressing human TIGIT, quantitative beads
T1 construct: whole, on cells; also called human TIGIT; hTIGIT
T1 sequence (looked up): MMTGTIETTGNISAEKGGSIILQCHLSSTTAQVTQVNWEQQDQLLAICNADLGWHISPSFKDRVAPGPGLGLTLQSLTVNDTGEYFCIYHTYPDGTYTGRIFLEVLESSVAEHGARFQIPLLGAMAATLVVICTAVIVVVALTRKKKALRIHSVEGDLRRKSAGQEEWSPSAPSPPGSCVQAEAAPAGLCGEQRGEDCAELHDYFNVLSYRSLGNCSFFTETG

[2] = target: T1, 人TIGIT (full length, on cells); test: flow cytometry competition on 293F cells expressing human TIGIT; competitor CD155.ECD-mFc at 2 μg/mL
[3] = target: T2, 食蟹猴TIGIT (full length, on cells) (cynomolgus monkey, UniProt A0A7N9I9V4 89-312); test: flow cytometry on Flp-In CHO cells expressing cynomolgus TIGIT
T2 construct: whole, on cells; also called cynomolgus TIGIT; W364-FlpinCHO.cynopro1.FL

[4] = target: T1, 人TIGIT (full length, on cells); test: cell-based or functional assay
[5] = target: T3, 小鼠TIGIT (full length, on cells) (mouse, UniProt P86176 29-249); test: flow cytometry on Flp-In CHO cells expressing mouse TIGIT
T3 construct: whole, on cells; also called mouse TIGIT; W364-FlpinCHO.mpro1.FL
T3 sequence (looked up): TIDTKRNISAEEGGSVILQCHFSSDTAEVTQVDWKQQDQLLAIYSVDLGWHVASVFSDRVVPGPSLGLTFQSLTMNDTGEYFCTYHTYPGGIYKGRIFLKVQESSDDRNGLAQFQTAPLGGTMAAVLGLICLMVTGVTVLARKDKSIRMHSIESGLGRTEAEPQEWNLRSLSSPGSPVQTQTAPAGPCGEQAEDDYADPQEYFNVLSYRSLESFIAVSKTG

[6] = target: T1, 人TIGIT (full length, on cells); test: flow cytometry on 293F cells expressing human TIGIT
W364-hPro1.ECD.His = target: T4, W364-hPro1.ECD.His (human, UniProt Q495A1 22-141); test: SPR (Biacore 8K), antibody captured by anti-human IgG Fc, TIGIT ECD as analyte, 1:1 model
T4 construct: extracellular domain; Analyte in the SPR assay; 20 kDa used for molar concentration; also called W364-hPro1.ECD.his (Sino); 人TIGIT胞外结构域
T4 sequence (looked up): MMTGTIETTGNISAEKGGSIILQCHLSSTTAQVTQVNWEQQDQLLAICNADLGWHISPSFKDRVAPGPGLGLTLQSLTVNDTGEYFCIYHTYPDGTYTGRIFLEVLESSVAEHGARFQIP

T2 sequence (A0A7N9I9V4 entry or part of it): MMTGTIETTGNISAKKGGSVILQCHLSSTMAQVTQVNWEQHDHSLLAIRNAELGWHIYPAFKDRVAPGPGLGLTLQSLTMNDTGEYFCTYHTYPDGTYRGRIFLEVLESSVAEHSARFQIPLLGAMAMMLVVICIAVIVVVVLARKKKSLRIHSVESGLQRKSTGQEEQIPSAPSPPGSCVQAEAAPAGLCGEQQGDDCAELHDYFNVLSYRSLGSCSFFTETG

- Kd [1]: 0.027 nM
- IC50 [2]: 0.14 nM
- EC50 [3]: 0.05 nM
- ADCC EC50 (LDH release, PBMC effectors) [4]: 0.0019 nM
- NFAT-荧光素酶报告基因 EC50 [4]: 0.92 nM
- EC50 [5]: 0.14 nM
- EC50 [6]: 0.17 nM
- Kd (W364-hPro1.ECD.His): 0.75 nM
B1: W3645-2.131.4-hIgG1L3 (antibody, V domains shown)
VH: QLQLQESGPGLVKPSETLSLTCAVSGGSITSSSYYWGWIRQPPGKGLEWIGSIFFSGITYYNPSLKSRVTVSVDTSKNQFSLKLSSVTAADTAIYYCARRGLGGILASGYFDYWGQGTLVTVSS
VL: QSALTQPASVSGSPGQSITISCTGTSNDVGGYNYVSWYQQHPGKAPRLLIFDVSNRRTGISNRFSGSKSGITASLTISGLQAEDEADYYCSSYTSISTLVVFGGGTKLTVL
notes: Fully human (OMT rat derived), human IgG1; also called WBP3645先导抗体; WBP3645最终先导抗体
